B1: mRNA-splicing (parent)
chain: AGUUGCUGCUGGGAGCUCCAGCACAGUGAAAUGGACAGAAGGGCAGAGCAA

Variants of: B1
Experiment: exon inclusion enrichment index; higher = more inclusion; WT1 exon 5 minigene, HEK293

Going from AGUUGCUGCUGGGAGCUCCAGCACAGUGAAAUGGACAGAACAGCAGAGCAA to AGUUGACGACGGGAGCUCCAGCACAGUGAAAUGGACAGAAGGGCAGACCAA, the “exon inclusion enrichment index” value rises from 0.238 to 2.99.

Going from AGUUUCUUUUGGGAGCUCCAGCACAGUGAAACAGACAGAAGGGCAGAGCAA to AGUUCGCGCCGGGAGCUCCAGCACAGUGAAAGCGACAGAAGGGCAGAGCAA, the “exon inclusion enrichment index” value rises from 0.0483 to 3.31.

Going from AGUUUUUGCUGGGAGCUCCAGCACAGUGAAAUGGACAGAAGGGCAGAGCAA to AGUUCGCGCCGGGAGCUCCAGCACAGUGAAAUGGACAGAAGGUAAGAGCAA, the “exon inclusion enrichment index” value rises from 0.0058 to 0.0721.

Going from AGUUAUUUUUGGGAGCUCCAGCACAGUGAAAUGGACAGAAGGGCAGAGCAA to AGUUAUAUAUGGGAGCUCCAGCACAGGCAAAUGGACAGAAGGGCAGAGCAA, the “exon inclusion enrichment index” value falls from 0.0357 to 0.0308.

Compared with AGUUUCUUUUGGGAGCUCCAGCACAGUGAAAUGGACAAUAGGGCAGAGCAA, AGUUCUUCUCGGGAGCUCCAGCACAGUGAAAUGGACAGAAGGGCCAAGCAA is higher in “exon inclusion enrichment index” value: 0.00274 for the first, 1.12 for the second.

Going from AGUUCACAAUGGGAGCUCCAGCACAGUGAAAUGGACAGAAGGGCAGAGCAA to AGUUGCGGCUGGGAGCUCCAGCACAGUGAAAUGGACAGAAGGGCAGAGCAA, the “exon inclusion enrichment index” value falls from 0.746 to 0.183.

Compared with AGUUAGGGAUGGGAGCUCCGGCACAGUGAAAUGGACAGAAGGGCAGAGCAA, AGUUUCUUUUGGGAGCUCCAGCACUAUGAAAUGGACAGAAGGGCAGAGCAA is higher in “exon inclusion enrichment index” value: 0.00245 for the first, 0.176 for the second.

Going from AGUUGAAUAAGGGAGCUCCAGCACAGUGAAAUGGACAGAAGGGCAGAGCAA to AGUCCCUUUUGGGAGCUCCAGCACAGUGAAAUGGACAGAAGGGCAGAGCAA, the “exon inclusion enrichment index” value falls from 0.117 to 0.112.

Going from AGUUUCUUUUGGGAAAUCCAGCACAGUGAAAUGGACAGAAGGGCAGAGCAA to AGUUCUUCUCGGGAGCUCCAGCACAGUCGAAUGGACAGAAGGGCAGAGCAA, the “exon inclusion enrichment index” value rises from 0.0496 to 2.82.

Going from AGUUAUAUAUGGGAGCUCCAGCACAGUGAAAUGGACAGAAGGGGAGAGCAA to AGUUCGCGCCGGGAGCUCCAGCACAGUAGAAUGGACAGAAGGGCAGAGCAA, the “exon inclusion enrichment index” value rises from 0.115 to 2.1.

First: AGUUGCUGCUGGGAGCUCCAGCACAGUGAAAUGGACAGAAGUGCAGAGCAA
Second: AGUUUCUUUUGGGAGCUCCAGGUCAGUGAAAUGGACAGAAGGGCAGAGCAA
The “exon inclusion enrichment index” value of the first is higher: 0.329 for the first, 0.0132 for the second.

First: AGUUCACACAGGGAGCUCCAGCACAGUGAAAUGGACAAUAGGGCAGAGCAA
Second: AGUUACCACCGGGAGCUCCAGCACAGUGAAAUGGACAACAGGGCAGAGCAA
The “exon inclusion enrichment index” value of the first is lower: 0.0079 for the first, 1.95 for the second.

First: AGUUCUUCUCGGGAGCUCCAGCAACGUGAAAUGGACAGAAGGGCAGAGCAA
Second: AGUUUGCACCGGGAGCUCCAGCACAGUGAAAUGGACAGAAGGGCAGAGCAA
The “exon inclusion enrichment index” value of the first is higher: 3.4 for the first, 2.27 for the second.

Compared with AACUGACGACGGGAGCUCCAGCACAGUGAAAUGGACAGAAGGGCAGAGCAA, AGUUUCUUUUGGGAGCUCCAGCACAGUGAAAUGGACAGAAGAACAGAGCAA is lower in “exon inclusion enrichment index” value: 3.17 for the first, 1.46 for the second.

Going from AGUUCUUCUCGGGAGCUCCAGCACAGUGAAAUGGACAGAAGGAAAGAGCAA to AGUUCAUGCAGGGAGCUCCAGCACAGUGAAAUGGACAGAAGGGCAGAGCAA, the “exon inclusion enrichment index” value falls from 3.42 to 0.116.

Going from AGUUGAAGAUGGGAGCUCCAGCACAGUGAAAUGGACAGAAGGGCAGAGCAA to AGUUGACGACGGAAGCUCCAGCACAGUGAAAUGGACAGAAGGGCAGAGCAA, the “exon inclusion enrichment index” value rises from 1.65 to 3.32.

First: AGUUCGCGCCGGGAGCUCCAGCACAGUGAAAUGGACAAAAGGGCAGAGCAA
Second: AGUUUCUUUUGGGAGCUCCAGCACAGUGAAAUGGACAGAAGGGAAGAGCAA
The “exon inclusion enrichment index” value of the first is higher: 2.05 for the first, 0.454 for the second.

Compared with AGUUAUAUAUGGGAGCUCCAGCACAGUGAAAUGGACAGAAGGGCACUGCAA, AGUUGAAGAAGGGAGCUCCAGCACAGUGAAAUGGACAGAAGGGCAGGGCAA is higher in “exon inclusion enrichment index” value: 0.0869 for the first, 0.13 for the second.

Compared with AGUUCACACAGGGAGCUCCAGCACCGUGAAAUGGACAGAAGGGCAGAGCAA, AGUUGAAGAAGGGAGCUCCAGCACAGUGAAAUGGACAAUAGGGCAGAGCAA is lower in “exon inclusion enrichment index” value: 0.77 for the first, 0.0204 for the second.

Going from ACAUAUAUAUGGGAGCUCCAGCACAGUGAAAUGGACAGAAGGGCAGAGCAA to AGUUCACACAGGGAGCUCCAAAACAGUGAAAUGGACAGAAGGGCAGAGCAA, the “exon inclusion enrichment index” value falls from 0.0584 to 0.0529.

Compared with AGUUCGCGCCGGGAGCUCCAGAACAGUGAAAUGGACAGAAGGGCAGAGCAA, AGUUUCUUUUGGGAGCUCCAGCACAAGGAAAUGGACAGAAGGGCAGAGCAA is lower in “exon inclusion enrichment index” value: 3.06 for the first, 0.338 for the second.

Going from AGUUCACACAGGGAGCUCCGGCACAGUGAAAUGGACAGAAGGGCAGAGCAA to AGUUGAAGAAGGGAGCUCCAGCACAGUGAAAUGGACAGAAAUGCAGAGCAA, the “exon inclusion enrichment index” value rises from 0.306 to 0.617.

First: AGUUGAAGAAGGGAGCUCCAGCACAUCGAAAUGGACAGAAGGGCAGAGCAA
Second: AGUUAUAUAAAGGAGCUCCAGCACAGUGAAAUGGACAGAAGGGCAGAGCAA
The “exon inclusion enrichment index” value of the first is higher: 2.22 for the first, 0.0538 for the second.

Compared with AGUUAUAUAUGGGAGCUCCAGCACAGUAGAAUGGACAGAAGGGCAGAGCAA, AGUUGUAGAAGGGAGCUCCAGCACAGUGAAAUGGACAGAAGGGCAGAGCAA is higher in “exon inclusion enrichment index” value: 0.00353 for the first, 0.0567 for the second.

First: AGUUAUAUAUGGGAGCUCCAGCUCAGUGAAAUGGACAGAAGGGCAGAGCAA
Second: AGUUCACACAGCGAGCUCCAGCACAGUGAAAUGGACAGAAGGGCAGAGCAA
The “exon inclusion enrichment index” value of the first is lower: 0.0353 for the first, 0.365 for the second.

For AGUUCUUCUCGGGAGCUCCAGCACAGUGAAAUGGACAGAAGGGCAAAGCAA, the “exon inclusion enrichment index” value was 2.05.

From the RNAGym collection of RNA variant scans (doi:10.1101/gr.219683.116)
